The target in this experiment is mCherry-PEX5(TPR) (human) (UniProt P50542). Kind of experiment: FRET or BRET; flowFRET competition in living pex5-/- MEF; mCherry-PEX5(TPR) as acceptor, EGFP-PTS1(SCP2) as donor, Cerulean-tagged protein as competitor; apparent KD1^app and KD2^app by fitting, plotted as Log10(KD2^app)/Log10(KD1^app). A general note: BRET reads energy transfer from a luciferase to a nearby fluorophore.

On to Cerulean-PTS1(SCP2) (peptide), for which the Log10(KD2^app)/Log10(KD1^app) against the donor EGFP-PTS1(SCP2) stood at 1.

For the origin of these results see paper PMC9669585.
